Experiments:
[1] = target: M. tb ICD-2 (Mycobacterium tuberculosis, UniProt O53611); assay: biochemical
[2] = test system: NC(=O)c1ccc[n+]([C@@H]2O[C@H](COP(=O)(O)OP(=O)(O)OC[C@H]3O[C@@H](n4cnc5c(N)ncnc54)[C@H](OP(=O)(O)O)[C@@H]3O)[C@@H](O)[C@H]2O)c1; assay: purified protein; details: pH 7.5; 25.0 °C; varied: cofactor
[3] = test system: O=C(O)CC(C(=O)O)C(O)C(=O)O; assay: purified protein; details: pH 7.5; 25.0 °C

Sequence of M. tb ICD-2 (O53611 whole entry): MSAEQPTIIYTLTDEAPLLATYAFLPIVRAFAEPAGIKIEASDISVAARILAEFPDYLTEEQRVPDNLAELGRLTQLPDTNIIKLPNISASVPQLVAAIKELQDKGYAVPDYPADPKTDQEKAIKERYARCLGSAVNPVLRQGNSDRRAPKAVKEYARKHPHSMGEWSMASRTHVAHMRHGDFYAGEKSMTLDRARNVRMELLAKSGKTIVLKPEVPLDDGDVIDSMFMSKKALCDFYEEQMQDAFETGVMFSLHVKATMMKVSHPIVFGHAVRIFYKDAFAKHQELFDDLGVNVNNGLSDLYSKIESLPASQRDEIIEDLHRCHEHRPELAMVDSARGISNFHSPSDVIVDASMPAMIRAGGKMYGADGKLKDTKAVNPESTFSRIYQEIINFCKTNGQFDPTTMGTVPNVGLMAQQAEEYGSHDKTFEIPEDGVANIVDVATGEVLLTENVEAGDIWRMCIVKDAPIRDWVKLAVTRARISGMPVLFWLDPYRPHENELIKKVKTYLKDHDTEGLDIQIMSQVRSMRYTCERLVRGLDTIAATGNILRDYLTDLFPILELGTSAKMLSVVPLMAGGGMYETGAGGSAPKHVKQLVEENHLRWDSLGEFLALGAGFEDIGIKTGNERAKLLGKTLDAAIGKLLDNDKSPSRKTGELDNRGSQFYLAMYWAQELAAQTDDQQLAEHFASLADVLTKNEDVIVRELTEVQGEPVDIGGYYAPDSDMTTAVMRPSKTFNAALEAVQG

Row | Compound | Ki [1] [µM] | Km [2] [µM] | Vmax [2] [μM NADPH/min] | Km [3] [µM] | Vmax [3] [μM NADPH/min]
1 | NC(=O)C1=CN([C@@H]2O[C@H](COP(=O)(O)OP(=O)(O)OC[C@H]3O[C@@H](n4cnc5c(N)ncnc54)[C@H](OP(=O)(O)O)[C@@H]3O)[C@@H](O)[C@H]2O)C=CC1 [NADPH] | 4.6 |  |  |  | 
2 | M. tb ICD-1 (Mycobacterium tuberculosis H37Rv) |  | 125 ± 5 | 400 | 10 ± 5 | 380
